In US20220135665A1:
Values joined by “and” are separate entries in the source; they are usually repeats but may differ in a detail not shown here. Equal entries are not always repeated.

Experiments:
[1] = target: recombinant human VEGF165 protein (human) (UniProt P15692); assay: streptavidin-coated sensor with immobilized biotin-labeled VEGF165, Fab at multiple concentrations
[2] = target: recombinant human VEGF165 protein (human) (UniProt P15692); assay: cell-based or functional assay
[3] = target: recombinant human VEGF165 protein (human) (UniProt P15692); assay: streptavidin-coated sensor with immobilized biotin-labeled VEGF165; reference Lucentis
[4] = target: recombinant human VEGF165 protein (human) (UniProt P15692); assay: ELISA; coated VEGF165 titrated (0.15-3000 ng/mL), Fab fixed at 1 ug/mL; EC50 is in coated antigen concentration
[5] = target: recombinant human VEGF165 protein (human) (UniProt P15692); assay: Table 3, binding affinity to recombinant VEGF165 (streptavidin-coated sensor, biotin-labeled VEGF165)

Row | Binder | Kd [1] | koff [1] | kon [1] | EC50(nM), neutralization of HUVEC proliferation, VEGF165 at 10 ng/mL [2] | fold affinity against Lucentis [3] | EC50 [4] | EC50(nM), neutralization of HUVEC proliferation, VEGF165 at 100 ng/mL [2] | EC50(nM), neutralization of HUVEC proliferation, VEGF165 at 1000 ng/mL [2] | Maximum neutralization rate (%), VEGF165 at 10 ng/mL [2] | Maximum neutralization rate (%), VEGF165 at 100 ng/mL [2] | Maximum neutralization rate (%), VEGF165 at 1000 ng/mL [2] | Kd [5] | koff [5] | kon [5]
1 | humanized antibody VEGF-H988 Fab fragment (Fab, V domains shown) VH: QSVQESGPGLVKPSETLSLTCTVSGIDLSSYAISWVRQPPGKGLEYIGYIWNDLFTYYASWAKGRVTISVDTSKNQVDLKLSSVTAADTAVYFCARGTLGDYGGMDPWGQGTLVTVSS VL: ELQLTQSPSSLSASVGDRVTITCQSSKFLWQGRRLAWYQQKPGKVPKLLIYGASTLASGVPSRFKGSGSGTDFTLTISSLQPEDVATYYCAGYKSYDGDVVGFGGGTKVEIKR | 0.154 nM | 4.21e-05 s⁻¹ | 274000 M⁻¹ s⁻¹ | 0.23 nM and 0.18 nM and 0.22 nM | 3.75 fold | 0.0187 µg/mL | – | – | – | – | – | – | – | –
2 | Brolucizumab (scFv, INN chains, looked up, V domains shown, scFv) VH: EVQLVESGGGLVQPGGSLRLSCTASGFSLTDYYYMTWVRQAPGKGLEWVGFIDPDDDPYYATWAKGRFTISRDNSKNTLYLQMNSLRAEDTAVYYCAGGDHNSGWGLDIWGQGTLVTVSS VL: EIVMTQSPSTLSASVGDRVIITCQASEIIHSWLAWYQQKPGKAPKLLIYLASTLASGVPSRFSGSGSGAEFTLTISSLQPDDFATYYCQNVYLASTNGANFGQGTKLTVL | – | – | – | 0.41 nM | – | – | 6.74 nM | 71.2 nM | 100% | 101% | 101% | – | – | –
3 | VEGF-H988 (sample label in Table 3) (antibody, V domains shown) VH: QSVQESGPGLVKPSETLSLTCTVSGIDLSSYAISWVRQPPGKGLEYIGYIWNDLFTYYASWAKGRVTISVDTSKNQVDLKLSSVTAADTAVYFCARGTLGDYGGMDPWGQGTLVTVSS VL: ELQLTQSPSSLSASVGDRVTITCQSSKFLWQGRRLAWYQQKPGKVPKLLIYGASTLASGVPSRFKGSGSGTDFTLTISSLQPEDVATYYCAGYKSYDGDVVGFGGGTKVEIK | – | – | – | – | – | – | – | – | – | – | – | 0.0195 nM | 6.7e-06 s⁻¹ | 344000 M⁻¹ s⁻¹
